This note sets out measurements from article PMC7658486.

One may read the stoichiometry N as the number of molecules, sites or subunits per partner or assembly.

The target in this test is rainbow trout IL-2 (IL-2A), FLAG-tagged, from insect cells (rainbow trout (Oncorhynchus mykiss)). The test can be described thus: SEC; Superose 12 column, PBS (-), 0.5 ml/min, 10-15 μg protein purified from insect cell supernatant; calibrated with standard proteins. (SEC sorts molecules by how far they enter the pores of the column.)

For the substance “rainbow trout IL-2 (IL-2A), FLAG-tagged, from insect cells (ligand)”, the stoichiometry N stood at 2.
